Paper PMC3355305, “Localized Dimerization and Nucleoid Binding Drive Gradient Formation by the Bacterial Cell Division Inhibitor MipZ” (Molecular Cell, 2012)

B1: MipZ (wild type), hexahistidine-tagged [Caulobacter crescentus] / itself (parent)
chain: MAETRVIVVGNEKGGAGKSTIAVHLVTALLYGGAKVAVIDLDLRQRTSARFFENRRAWLDNKKIELPEPLALNLSDNDVALAERPEEEQVAGFEAAFARAMAECDFILIDTPGGDSAITRMAHGRADLVVTPMNDSFVDFDMLGTVDPVTLELTKPSLYSLTVWEGRKQRALSGQRQAMDWVVLRNRLATTEARNRKRLEDRLNALAKRVGFRIGPGLRDRVIYRELFPFGLTIADLSPQVRPVPVSLQHLAARQELRALMHSLGLSAYSGETMLAAQ

Variants of: B1
Test: SPR
Settings: with itself; 3500 RU immobilized protein; 0.5 μM soluble protein; + ATP; parent: 370; read off a plot

response | Variant
910 RU | MAETRVIVVGNEKGGAGKSTIAVHLVTALLYGGAKVAVIDLALRQRTSARFFENRRAWLDNKKIELPEPLALNLSDNDVALAERPEEEQVAGFEAAFARAMAECDFILIDTPGGDSAITRMAHGRADLVVTPMNDSFVDFDMLGTVDPVTLELTKPSLYSLTVWEGRKQRALSGQRQAMDWVVLRNRLATTEARNRKRLEDRLNALAKRVGFRIGPGLRDRVIYRELFPFGLTIADLSPQVRPVPVSLQHLAARQELRALMHSLGLSAYSGETMLAAQ [chain 1 D42A]

Same assay, conditions: with itself; 3500 RU immobilized protein; 0.5 μM soluble protein; ATP in the binding phase; wash with buffer lacking protein and nucleotides

koff | Variant
0.067 min⁻¹ | MAETRVIVVGNEKGGAGKSTIAVHLVTALLYGGAKVAVIDLALRQRTSARFFENRRAWLDNKKIELPEPLALNLSDNDVALAERPEEEQVAGFEAAFARAMAECDFILIDTPGGDSAITRMAHGRADLVVTPMNDSFVDFDMLGTVDPVTLELTKPSLYSLTVWEGRKQRALSGQRQAMDWVVLRNRLATTEARNRKRLEDRLNALAKRVGFRIGPGLRDRVIYRELFPFGLTIADLSPQVRPVPVSLQHLAARQELRALMHSLGLSAYSGETMLAAQ [chain 1 D42A]
